Results on two molecules are retold here after patent publication US12553037B2, “Engineered class 2, type V repressor systems” (Scribe Therapeutics Inc., priority 2021, dated 2026).

One series concerns HBEGF locus. The class given is cell-based, human. Conditions: abundance of KRAB domain before vs after selection; 2 ng/mL diphtheria toxin for 48 hours; spacer 34.28; HEK293T.
Series [1] can be described thus: Editing assays comparing gRNA scaffolds 316 and 174.

B1: DOMAIN_26749: KRAB domain derived from the king cobra, Ophiophagus hannah; SEQ ID NO: 57755 (protein)
chain: STPVTFEDVVVYFTAAEWVHLTNWQRDFYQAVMMETYELVASVAGDGVPMAEDEEGGVERPVWQYIPRGKRRRKTPQPRAD
modifications: Ophiophagus hannah
Consider B1, for which the “log2(fold change)” value with HBEGF locus is reported as “highest log2(fold change)”.

B2: 316 scaffold: chimeric gRNA scaffold, SEQ ID NO: 59352, 89 nucleotides (nucleic acid)
guide: ACUGGCGCUUCUAUCUGAUUACUCUGAGCGCCAUCACCAGCGACUAUGUCGUAGUGGGUAAAGCUCCCUCUUCGGAGGGAGCAUCAGAG
modifications: listed as RNA, further chemistry not given here
As for B2, in series [1], the “performance in editing assays relative to gRNA scaffold 174” value is recorded as “perform comparably or more favorably than gRNA scaffold 174”.
